Here are results for ten molecules from publication PMC2408616, “Modular Organization and Combinatorial Energetics of Proline–Tyrosine Nuclear Localization Signals” (PLoS Biology, 2008).

As a reminder, the Kd is the concentration at which binding is half-saturated.

Substitutions are numbered along the chain they refer to. In names and notes the source's numbering stands.

Experiment [1] deals with Kap104p (UniProt P38217). Description: ITC. A general note: ITC needs no label: the signal is the heat of the interaction.
Experiment [2] concerns the target T1, Kap104p (yeast (S. cerevisiae), UniProt P38217 1-918).
T1 chain: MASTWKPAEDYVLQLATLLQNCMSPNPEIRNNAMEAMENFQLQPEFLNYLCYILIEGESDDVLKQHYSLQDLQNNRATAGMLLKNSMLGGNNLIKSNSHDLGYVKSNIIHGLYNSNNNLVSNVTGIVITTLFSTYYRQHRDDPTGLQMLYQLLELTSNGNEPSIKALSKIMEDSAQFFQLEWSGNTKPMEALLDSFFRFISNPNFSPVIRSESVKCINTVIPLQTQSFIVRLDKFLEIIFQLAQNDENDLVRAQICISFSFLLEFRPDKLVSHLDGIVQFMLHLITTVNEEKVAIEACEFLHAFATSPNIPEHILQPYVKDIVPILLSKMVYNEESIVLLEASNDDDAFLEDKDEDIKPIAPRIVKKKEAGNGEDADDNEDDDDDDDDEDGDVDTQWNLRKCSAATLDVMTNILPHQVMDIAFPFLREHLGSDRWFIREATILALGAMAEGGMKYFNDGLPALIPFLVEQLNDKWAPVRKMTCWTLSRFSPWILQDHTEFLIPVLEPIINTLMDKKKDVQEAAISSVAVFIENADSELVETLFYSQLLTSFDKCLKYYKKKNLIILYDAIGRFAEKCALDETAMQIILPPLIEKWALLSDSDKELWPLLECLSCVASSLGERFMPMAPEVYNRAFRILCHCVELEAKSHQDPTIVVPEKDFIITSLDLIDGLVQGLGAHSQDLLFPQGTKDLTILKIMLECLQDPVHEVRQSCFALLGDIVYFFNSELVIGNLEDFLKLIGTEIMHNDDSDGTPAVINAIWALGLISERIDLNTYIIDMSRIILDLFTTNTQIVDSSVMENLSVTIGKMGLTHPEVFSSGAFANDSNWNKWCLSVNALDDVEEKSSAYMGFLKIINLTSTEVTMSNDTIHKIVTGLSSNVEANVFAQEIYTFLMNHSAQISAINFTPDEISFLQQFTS
Description: ITC.

Experiment [3] concerns the target T2, Kap104p, P38217.
T2 chain: T1 chain
Description: ITC. The following applies: for Kd / other: TΔS / dG / other: ΔH: chain shown with the change;; for Kd: parent: 37 ± 20; for ddG / ratio to parent: chain shown with the change; for other: TΔS: parent: -1.3 ± 0.6; for dG: parent: -10.0 ± 0.3; for other: ΔH: parent: -11.3 ± 0.5. Details: other: TΔS: unit not given here.

The target in experiment [4] is T3, Kap104p (yeast (S. cerevisiae), UniProt P38217 1-918).
T3 construct: Kap104p, yeast homolog of Kapβ2; gene a gift from J. Aitchison, subcloned into pGEX-Tev; also called yeast Karyopherin β2 homolog; source: E. coli Rosetta(DE3)pLysS, purified (glutathione sepharose, TEV cleavage, anion exchange, gel filtration)
T3 sequence (looked up): T1 chain
Description: ITC; 90–350 μM MBP-NLS titrated into 9–35 μM Kap104p in the cell; 20 °C; 20 mM Tris pH 7.5, 100 mM NaCl, 2 mM β-mercaptoethanol, 10% glycerol; 35 injections of 8 μl; single-site model. Conditions: both partners purified.

The target in experiment [5] is T3, Kap104p. Description: pull-down; ~30 μg Kap104p added to ~10 μg GST protein immobilized on 20 μl glutathione sepharose; washes with TB buffer (20 mM HEPES pH 7.3, 110 mM KAc, 2 mM MgAc, 1 mM EGTA, 2 mM DTT, 20% glycerol); second incubation with buffer or RanGTP (5-fold molar excess); SDS-PAGE, Coomassie. The following applies: both partners purified.
The target of experiment [6] is T2, Kap104p, P38217. Description: ITC. Conditions: for ddG / ratio to parent: chain shown with the change; for other: TΔS / Kd / other: ΔH / dG: chain shown with the change;; for other: TΔS: parent: 0.09 ± 0.7; for Kd: parent: 32 ± 16; for other: ΔH: parent: -10.0 ± 0.5; for dG: parent: -10.1 ± 0.3.

With “MBP–Hrp1p NLS (from UniProt Q99383) R512A; 524RR525/AA”, in the experiment with Kap104p [1], the ddG came to 0.1 kcal/mol and the ratio to parent is 1.4. The other: TΔS with Kap104p [1] (parent: 0.09 ± 0.7) amounted to 0.06 kcal/mol. Moreover, in the experiment with Kap104p [1] (parent: -10.0 ± 0.5), the other: ΔH is -9.9 kcal/mol. The dG in the experiment with Kap104p [1] (parent: -10.1 ± 0.3) is -9.9 kcal/mol.

B1: MBP–Hrp1p NLS R512A, 524RR525/AA (peptide)
chain: RDRNDRDRDYNHRSGGNHARNGRGGRGGYNAANNGYHPYNR
With B1, the Kd in the experiment with Kap104p [2] amounted to 44 nM.

B2: MBP–Hrp1p NLS R512A, Y529A (peptide)
chain: B1 chain with A31R, A32R, Y36A
In the experiment with Kap104p [2], B2 yielded a Kd of 60 nM.

B3: MBP–Nab2p NLS 216KNRR219/AAAA (domain or fragment, S. cerevisiae, UniProt P32505 201-251, looked up)
chain: DNSQRFTQRGGGAVGAAAAGGRGGNRGGRNNNSTRFNPLAKALGMAGESNM
notes: Nab2p NLS, residues 201-251; source: E. coli BL21(DE3), purified (amylose resin, cation exchange)
Take B3: the Kd with Kap104p, P38217 [3] is 109 nM. For the same molecule, the “fold decrease in affinity against wild type” value in the experiment with Kap104p [4] stood at 3 fold.

B4: MBP–Nab2p NLS 226RGGRN230 to alanines (domain or fragment, S. cerevisiae, UniProt P32505 201-251, looked up)
chain: DNSQRFTQRGGGAVGKNRRGGRGGNAAAAANNSTRFNPLAKALGMAGESNM
notes: as for B3
As for B4, in the experiment with Kap104p, P38217 [3], the ddG stood at 0.3 kcal/mol, the ratio to parent turned out to be 1.6, the Kd was found to be 59 nM and the other: TΔS was -0.2. Also, in the experiment with Kap104p, P38217 [3], the dG was -9.7 kcal/mol and the other: ΔH was -9.9 kcal/mol. The binding result in the experiment with Kap104p [4] was “binds”.

B5: MBP–Nab2p NLS 222RGG224 to alanines (domain or fragment, S. cerevisiae, UniProt P32505 201-251, looked up)
chain: DNSQRFTQRGGGAVGKNRRGGAAANRGGRNNNSTRFNPLAKALGMAGESNM
notes: as for B3
B5: in the experiment with Kap104p, P38217 [3], the ddG is 0.3 kcal/mol, the ratio to parent was found to be 1.6, the Kd was 58 nM and the other: TΔS stood at 0.06. Further, in the experiment with Kap104p, P38217 [3], the dG was -9.7 kcal/mol and the other: ΔH is -9.6 kcal/mol. Also, the binding result in the experiment with Kap104p [4] is on record as “binds”.

B6: GST–Hrp1p, full-length (natural protein, S. cerevisiae, UniProt Q99383 1-534, looked up)
chain: MSSDEEDFNDIYGDDKPTTTEEVKKEEEQNKAGSGTSQLDQLAALQALSSSLNKLNNPNSNNSSSNNSNQDTSSSKQDGTANDKEGSNEDTKNEKKQESATSANANANASSAGPSGLPWEQLQQTMSQFQQPSSQSPPQQQVTQTKEERSKADLSKESCKMFIGGLNWDTTEDNLREYFGKYGTVTDLKIMKDPATGRSRGFGFLSFEKPSSVDEVVKTQHILDGKVIDPKRAIPRDEQDKTGKIFVGGIGPDVRPKEFEEFFSQWGTIIDAQLMLDKDTGQSRGFGFVTYDSADAVDRVCQNKFIDFKDRKIEIKRAEPRHMQQKSSNNGGNNGGNNMNRRGGNFGNQGDFNQMYQNPMMGGYNPMMNPQAMTDYYQKMQEYYQQMQKQTGMDYTQMYQQQMQQMAMMMPGFAMPPNAMTLNQPQQDSNATQGSPAPSDSDNNKSNDVQTIGNTSNTDSGSPPLNLPNGPKGPSQYNDDHNSGYGYNRDRGDRDRNDRDRDYNHRSGGNHRRNGRGGRGGYNRRNNGYHPYNR
notes: Hrp1p, S. cerevisiae; also called full-length Hrp1p; source: E. coli BL21(DE3), immobilized on glutathione sepharose
For B6, the binding result with Kap104p [5] is reported as “binds”.

B7: MBP–Hrp1p NLS 519RGGYN523/AAAAA (domain or fragment, S. cerevisiae, UniProt Q99383 494-534, looked up)
chain: RDRNDRDRDYNHRSGGNHRRNGRGGAAAAARRNNGYHPYNR
notes: Hrp1p NLS, residues 494-534; source: E. coli BL21(DE3), purified (amylose resin, cation exchange)
B7: in the experiment with Kap104p, P38217 [6], the ddG was -0.4 kcal/mol, the ratio to parent came out at 0.5, the other: TΔS was -3.8 kcal/mol/K and the Kd came to 17 nM. Further, in the experiment with Kap104p, P38217 [6], the other: ΔH was -14.2 kcal/mol and the dG was -10.4 kcal/mol. Moreover, the binding result with Kap104p [4] is “binds”.

B8: GST–Tfg2p, full-length (natural protein, S. cerevisiae, UniProt P41896 1-400, looked up)
chain: MSSGSAGAPALSNNSTNSVAKEKSGNISGDEYLSQEEEVFDGNDIENNETKVYEESLDLDLERSNRQVWLVRLPMFLAEKWRDRNNLHGQELGKIRINKDGSKITLLLNENDNDSIPHEYDLELTKKVVENEYVFTEQNLKKYQQRKKELEADPEKQRQAYLKKQEREEELKKKQQQQKRRNNRKKFNHRVMTDRDGRDRYIPYVKTIPKKTAIVGTVCHECQVMPSMNDPNYHKIVEQRRNIVKLNNKERITTLDETVGVTMSHTGMSMRSDNSNFLKVGREKAKSNIKSIRMPKKEILDYLFKLFDEYDYWSLKGLKERTRQPEAHLKECLDKVATLVKKGPYAFKYTLRPEYKKLKEEERKATLGELADEQTGSAGDNAQGDAEADLEDEIEMEDVV
notes: Tfg2p, S. cerevisiae; source: E. coli BL21(DE3), immobilized on glutathione sepharose
Consider B8, for which, in the experiment with Kap104p [5], the binding result is given as “binds”.

B9: MBP–Hrp1p NLS 506RSGG509/AAAA (domain or fragment, S. cerevisiae, UniProt Q99383 494-534, looked up)
chain: RDRNDRDRDYNHAAAANHRRNGRGGRGGYNRRNNGYHPYNR
notes: as for B7
Regarding B9, in the experiment with Kap104p, P38217 [6], the ddG was found to be 0.02 kcal/mol, the ratio to parent came to 1.3, the other: TΔS is -2.6 kcal/mol/K and the Kd is 42 nM. In addition, in the experiment with Kap104p, P38217 [6], the other: ΔH is -12.6 kcal/mol and the dG was -10 kcal/mol. The binding result in the experiment with Kap104p [4] was “binds”.
